In patent US20090111098A1 (SHIONOGI, published 2009):

T1: peptide GPPGPQG (region corresponding to amino acids 769 to 775 of human type 2 collagen) (human)
T1 construct: The immunogen carried an added N-terminal cysteine and was conjugated to BSA; The DELFIA screen was run as for 6G4
T1 peptide: GPPGPQG

T2: peptide GEPGDDAPS (region corresponding to amino acids 757 to 765 of human type 2 collagen) (human)
T2 construct: The immunogen carried an added C-terminal cysteine and was conjugated to KLH
T2 peptide: GEPGDDAPS


Legend:
[1] = target: T1, peptide GPPGPQG (region corresponding …); test: property stated for the prepared monoclonal antibody
[2] = target: T2, peptide GEPGDDAPS (region corresponding …); test: as above

Row | binding result [1] | binding result [2] | Binder
1 | binds |  | 2E6 antibody (monoclonal antibody produced by hybridoma TAG-2E6) (antibody, V domains shown, Mouse monoclonal IgG2b (k), 150 kDa; also called XL665-labeled 2E6 antibody; FERM ABP-10482) VH: QVTLKESGPGILQPSQTLSLTCSFSGFSLSTYGMGVGWIRQPSGKGLEWLAHIWWNDNKYYNTTLKSRLTISKDTSNKQVFLKIASVDTADTATYYCARIERWDPWFAYWGQGTLVTVSA VL: DVVMTQTPLSLPVSLGDQASISCRSSQSLVYSNGNTYFHWYLQKPGQSPKLLIYKVSNRFSGVPDRFSGSGSGTDFTLKISRVEAEDLGVYFCSQSTHVPLTFGAGTKLELKR
2 |  | binds | 6G4 antibody (monoclonal antibody produced by hybridoma TAG-6G4) (antibody, IgG1, V domains shown, Mouse monoclonal IgG1 (k), 150 kDa; also called cryptate-labeled 6G4 antibody; FERM ABP-10483) VH: EVQLVESGGSLVQPGGSLKLSCAASGFTFNNYGMSWVRQIPDKRLELVATITGNGHSTYYPVSVRGRFTISRDNAKNTLYLQMSSLKSEDTAMYYCVRGYSNFAFWGQGTTLTVSS VL: not shown
